Article PMC12678272

Tests used:
[1] = biological target: GST-RILP-L2 (RILP-Like 2, mouse) (mouse) (UniProt Q99LE1); assay: pull-down; 20 ug GST fusion protein immobilised on glutathione agarose beads, incubated 18 h at 4 C with 500 ug RBL cell lysate (untreated, Ion/TPA-activated, or Ion/TPA with LY333531); 50 mM HEPES pH 7.4, 150 mM NaCl, 1 mM MgCl2, 1% Triton X-100, phosphatase inhibitors; immunoblot, quantified as percent of total input
[2] = biological target: GST-RILP-L1 (RILP-Like 1, mouse) (mouse) (UniProt Q9JJC6); assay: as above
[3] = biological target: GST-RILP-L2 (RILP-Like 2, mouse) (mouse) (UniProt Q99LE1); assay: pull-down; 20 ug GST fusion protein immobilised on glutathione agarose beads, incubated 18 h at 4 C with 500 ug RAW264.7 macrophage lysate (untreated or treated with GSK2578215A); 50 mM HEPES pH 7.4, 150 mM NaCl, 1 mM MgCl2, 1% Triton X-100, phosphatase inhibitors; immunoblot, quantified as percent of total input
[4] = biological target: GST-RILP-L1 (RILP-Like 1, mouse) (mouse) (UniProt Q9JJC6); assay: as above

UniProt Q9JJC6, sequence (Q9JJC6 whole entry, the tested form may be a part): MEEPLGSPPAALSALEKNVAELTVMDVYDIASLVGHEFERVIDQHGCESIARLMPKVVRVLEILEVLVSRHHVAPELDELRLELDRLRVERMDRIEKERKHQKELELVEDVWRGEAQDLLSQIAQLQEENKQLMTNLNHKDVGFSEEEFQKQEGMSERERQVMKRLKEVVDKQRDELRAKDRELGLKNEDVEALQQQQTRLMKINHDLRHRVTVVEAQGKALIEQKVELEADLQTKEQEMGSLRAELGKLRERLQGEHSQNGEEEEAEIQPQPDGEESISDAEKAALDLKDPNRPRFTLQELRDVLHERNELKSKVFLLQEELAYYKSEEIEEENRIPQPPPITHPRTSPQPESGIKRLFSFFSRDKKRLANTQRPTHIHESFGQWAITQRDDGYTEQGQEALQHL
UniProt Q99LE1, sequence (Q99LE1 whole entry, the tested form may be a part): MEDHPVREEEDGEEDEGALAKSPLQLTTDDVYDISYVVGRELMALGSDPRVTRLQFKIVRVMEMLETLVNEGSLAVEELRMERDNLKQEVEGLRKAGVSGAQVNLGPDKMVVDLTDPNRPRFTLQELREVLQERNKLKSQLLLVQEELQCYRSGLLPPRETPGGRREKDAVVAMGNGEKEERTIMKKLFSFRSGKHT

Row | Substance | percent of total input pulled down [1] [%] | percent of total input pulled down [2] [%] | percent reduction of pull-down after GSK2578215A, against untreated cells [3] [%] | percent reduction of pull-down after GSK2578215A, against untreated cells [4] [%] | percent reduction of pull-down after LY333531, against Ion/TPA alone [1] [%] | percent reduction of pull-down after LY333531, against Ion/TPA alone [2] [%]
1 | phosphoRab12 (endogenous, Ion/TPA-activated RBL-2H3 cells) (from UniProt P35284 1-291) (natural protein) | 18 | 38 | – | – | – | –
2 | Rab12 (endogenous, RAW264.7 macrophages) (from UniProt P35283 1-291) (natural protein) | – | – | 80 | 50 | – | –
3 | Rab12 (endogenous, RBL-2H3 cells) (from UniProt P35284 1-291) (natural protein) | 4 | 14 | – | – | 90 | 60
